Assay results: patent US20230416365A1 (Hoffmann-La Roche, published 2023)
Positions count from the first letter of the chain named. Numbers in names are those of the source. One block for each binder: values may come before it.

What was measured:
[1] = molecular target: T1, human FAP on 3T3-huFAP cells (clone 19) (human, UniProt Q12884 1-760); test: flow cytometry on 3T3-huFAP cells, median fluorescence intensity
[2] = molecular target: T1, human FAP on 3T3-huFAP cells (clone 19); test: flow cytometry on 3T3-huFAP cells, PE anti-human secondary antibody, median fluorescence intensity
[3] = molecular target: T1, human FAP on 3T3-huFAP cells (clone 19); test: flow cytometry on 3T3-huFAP cells, median fluorescence intensity (axis MFI APC)
[4] = molecular target: T2, recombinant CD79b-His (Sinobiological #29750-H08H) (UniProt P40259 29-159); test: SPR, Biacore T200, CD79b-His captured by anti-penta-His on CM5, bispecific as analyte
T2 construct: bought; whole entry named, limits unknown; also called soluble recombinant CD79b-His
T2 sequence (looked up): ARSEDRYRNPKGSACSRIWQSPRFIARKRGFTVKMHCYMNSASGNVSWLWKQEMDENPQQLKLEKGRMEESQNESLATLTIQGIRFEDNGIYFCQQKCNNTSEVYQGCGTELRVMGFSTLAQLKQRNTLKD

B1: FAP-CD28SA 2+2 (P1AD4493) (bispecific antibody, human IgG1, kappa, L234A L235A)
CD28(SA) light chain VL-CL RK: not shown
heavy chain CD28(SA) VHCH1 EE - Fc PGLALA - FAP(4B9) VHCL: not shown
FAP(4B9) VLCH1: EIVLTQSPGTLSLSPGERATLSCRASQSVTSSYLAWYQQKPGQAPRLLINVGSRRATGIPDRFSGSGSGTDFTLTISRLEPEDFAVYYCQQGIMLPPTFGQGTKVEIKSSASTKGPSVFPLAPSSKSTSGGTAALGCLVKDYFPEPVTVSWNSGALTSGVHTFPAVLQSSGLYSLSSVVTVPSSSLGTQTYICNVNHKPSNTKVDKKVEPKSCD
notes: bivalent for CD28 and bivalent for FAP; copy numbers follow from the 2+2 format; also called Molecule F; FAP(4B9)-CD28(SA) 2+2
EC50 (read off the curve) [1]: ~2 nM | EC50 (read off the curve) [2]: ~2 nM

B2: FAP-CD28 1+4 (bispecific antibody, human IgG1, kappa, L234A L235A)
CD28(SA) light chain: not shown
heavy chain CD28(SA) VHCH-VHCH - Fc knob - FAP(4B9) VH: not shown
heavy chain CD28(SA) VHCH-VHCH - Fc hole - FAP(4B9) VL: QVQLVQSGAEVKKPGASVKVSCKASGYTFTSYYIHWVRQAPGQGLEWIGCIYPGNVNTNYNEKFKDRATLTVDTSISTAYMELSRLRSDDTAVYFCTRSHYGLDWNFDVWGQGTTVTVSSASTKGPSVFPLAPSSKSTSGGTAALGCLVKDYFPEPVTVSWNSGALTSGVHTFPAVLQSSGLYSLSSVVTVPSSSLGTQTYICNVNHKPSNTKVDKKVEPKSCDGGGGSGGGGSQVQLVQSGAEVKKPGASVKVSCKASGYTFTSYYIHWVRQAPGQGLEWIGCIYPGNVNTNYNEKFKDRATLTVDTSISTAYMELSRLRSDDTAVYFCTRSHYGLDWNFDVWGQGTTVTVSSASTKGPSVFPLAPSSKSTSGGTAALGCLVKDYFPEPVTVSWNSGALTSGVHTFPAVLQSSGLYSLSSVVTVPSSSLGTQTYICNVNHKPSNTKVDKKVEPKSCDKTHTCPPCPAPEAAGGPSVFLFPPKPKDTLMISRTPEVTCVVVDVSHEDPEVKFNWYVDGVEVHNAKTKPREEQYNSTYRVVSVLTVLHQDWLNGKEYKCKVSNKALGAPIEKTISKAKGQPREPQVCTLPPSRDELTKNQVSLSCAVKGFYPSDIAVEWESNGQPENNYKTTPPVLDSDGSFFLVSKLTVDKSRWQQGNVFSCSVMHEALHNHYTQKSLSLSPGGGGGSGGGGSGGGGSGGGGSEIVLTQSPGTLSLSPGERATLSCRASQSVTSSYLAWYQQKPGQAPRLLINVGSRRATGIPDRFSGSGSGTDFTLTISRLEPEDFAVYYCQQGIMLPPTFGQGTKVEIK
notes: tetravalent for CD28, monovalent for FAP; also called Molecule D; FAP(4B9)-CD28(SA) 1+4
binding result [1]: binds

B4: FAP-CD28 CTF (P1AE2236) (bispecific antibody, human IgG1, kappa, L234A L235A)
CD28(SA) light chain: not shown
heavy chain CD28(SA) VHCH - Fc hole - FAP(4B9) VL: QVQLVQSGAEVKKPGASVKVSCKASGYTFTSYYIHWVRQAPGQGLEWIGCIYPGNVNTNYNEKFKDRATLTVDTSISTAYMELSRLRSDDTAVYFCTRSHYGLDWNFDVWGQGTTVTVSSASTKGPSVFPLAPSSKSTSGGTAALGCLVKDYFPEPVTVSWNSGALTSGVHTFPAVLQSSGLYSLSSVVTVPSSSLGTQTYICNVNHKPSNTKVDKKVEPKSCDKTHTCPPCPAPEAAGGPSVFLFPPKPKDTLMISRTPEVTCVVVDVSHEDPEVKFNWYVDGVEVHNAKTKPREEQYNSTYRVVSVLTVLHQDWLNGKEYKCKVSNKALGAPIEKTISKAKGQPREPQVCTLPPSRDELTKNQVSLSCAVKGFYPSDIAVEWESNGQPENNYKTTPPVLDSDGSFFLVSKLTVDKSRWQQGNVFSCSVMHEALHNHYTQKSLSLSPGGGGGSGGGGSGGGGSGGGGSEIVLTQSPGTLSLSPGERATLSCRASQSVTSSYLAWYQQKPGQAPRLLINVGSRRATGIPDRFSGSGSGTDFTLTISRLEPEDFAVYYCQQGIMLPPTFGQGTKVEIK
Fc knob - FAP(4B9) VH: not shown
notes: also called Molecule I; FAP(4B9)-CD28(SA) C-04
EC50 (read off the curve) [3]: ~2 nM

B8: FAP-CD28CA 2+2 (P1AD8968) (bispecific antibody)
heavy chain CD28(mAb 9.3) VHCH EE - Fc PGLALA - FAP(4B9) VHCL: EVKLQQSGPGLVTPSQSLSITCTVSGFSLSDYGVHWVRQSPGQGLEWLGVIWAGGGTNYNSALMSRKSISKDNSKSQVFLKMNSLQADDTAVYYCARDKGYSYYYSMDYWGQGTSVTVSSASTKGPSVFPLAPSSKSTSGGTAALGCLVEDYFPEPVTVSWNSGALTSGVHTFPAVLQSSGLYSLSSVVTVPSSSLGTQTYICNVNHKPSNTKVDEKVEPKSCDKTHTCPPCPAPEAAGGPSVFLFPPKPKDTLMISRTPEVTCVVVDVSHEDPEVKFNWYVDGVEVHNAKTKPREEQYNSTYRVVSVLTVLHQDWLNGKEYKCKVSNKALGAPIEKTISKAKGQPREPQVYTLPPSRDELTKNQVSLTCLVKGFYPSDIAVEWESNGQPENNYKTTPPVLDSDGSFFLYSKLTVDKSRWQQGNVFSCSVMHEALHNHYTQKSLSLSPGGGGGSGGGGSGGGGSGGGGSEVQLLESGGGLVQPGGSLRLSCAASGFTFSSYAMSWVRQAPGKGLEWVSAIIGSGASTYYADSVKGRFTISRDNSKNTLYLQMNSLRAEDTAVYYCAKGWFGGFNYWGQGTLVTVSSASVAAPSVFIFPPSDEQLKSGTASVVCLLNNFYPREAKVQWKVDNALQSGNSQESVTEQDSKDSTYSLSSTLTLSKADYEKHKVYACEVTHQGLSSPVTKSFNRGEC
CD28(mAb 9.3) light chain VLCL RK: DIELTQSPASLAVSLGQRATISCRASESVEYYVTSLMQWYQQKPGQPPKLLIFAASNVESGVPARFSGSGSGTNFSLNIHPVDEDDVAMYFCQQSRKVPYTFGGGTKLEIKRTVAAPSVFIFPPSDRKLKSGTASVVCLLNNFYPREAKVQWKVDNALQSGNSQESVTEQDSKDSTYSLSSTLTLSKADYEKHKVYACEVTHQGLSSPVTKSFNRGEC
FAP(4B9) VLCH1: EIVLTQSPGTLSLSPGERATLSCRASQSVTSSYLAWYQQKPGQAPRLLINVGSRRATGIPDRFSGSGSGTDFTLTISRLEPEDFAVYYCQQGIMLPPTFGQGTKVEIKSSASTKGPSVFPLAPSSKSTSGGTAALGCLVKDYFPEPVTVSWNSGALTSGVHTFPAVLQSSGLYSLSSVVTVPSSSLGTQTYICNVNHKPSNTKVDKKVEPKSC
notes: also called Molecule R; FAP(4B9)-CD28(mAb9.3) 2+2
EC50 (read off the curve) [2]: ~1 nM

Next, values leading:

EC50 (read off the curve) [3]: ~1 nM
B3: FAP-CD28 H2T (P1AE2021) (bispecific antibody, human IgG1, kappa, L234A L235A)
heavy chain CD28(SA) VLCH1 - FAP(4B9) VHCH1 EE - Fc knob PGLALA: not shown
CD28(SA) VHCL: QVQLVQSGAEVKKPGASVKVSCKASGYTFTSYYIHWVRQAPGQGLEWIGCIYPGNVNTNYNEKFKDRATLTVDTSISTAYMELSRLRSDDTAVYFCTRSHYGLDWNFDVWGQGTTVTVSSASVAAPSVFIFPPSDEQLKSGTASVVCLLNNFYPREAKVQWKVDNALQSGNSQESVTEQDSKDSTYSLSSTLTLSKADYEKHKVYACEVTHQGLSSPVTKSFNRGEC
FAP(4B9) VLCL RK: EIVLTQSPGTLSLSPGERATLSCRASQSVTSSYLAWYQQKPGQAPRLLINVGSRRATGIPDRFSGSGSGTDFTLTISRLEPEDFAVYYCQQGIMLPPTFGQGTKVEIKRTVAAPSVFIFPPSDRKLKSGTASVVCLLNNFYPREAKVQWKVDNALQSGNSQESVTEQDSKDSTYSLSSTLTLSKADYEKHKVYACEVTHQGLSSPVTKSFNRGEC
Fc hole PGLALA: DKTHTCPPCPAPEAAGGPSVFLFPPKPKDTLMISRTPEVTCVVVDVSHEDPEVKFNWYVDGVEVHNAKTKPREEQYNSTYRVVSVLTVLHQDWLNGKEYKCKVSNKALGAPIEKTISKAKGQPREPQVCTLPPSRDELTKNQVSLSCAVKGFYPSDIAVEWESNGQPENNYKTTPPVLDSDGSFFLVSKLTVDKSRWQQGNVFSCSVMHEALHNHYTQKSLSLSP
notes: head-to-tail 1+1 format; also called Molecule H; FAP(4B9)-CD28(SA) C-01

Kd [4]: 76 nM | koff [4]: 0.0195 s⁻¹ | kon [4]: 257000 M⁻¹ s⁻¹
B5: CD79b (huMA79b.v28)-CD28 (SA_v15) 1+1 (Molecule F of Example 18; 18F) (bispecific antibody, human IgG1, kappa, L234A L235A)
heavy 1: not shown
light 1: not shown
heavy 2: DIQLTQSPSSLSASVGDRVTITCKASQSVDYEGDSFLNWYQQKPGKAPKLLIYAASNLESGVPSRFSGSGSGTDFTLTISSLQPEDFATYYCQQSNEDPLTFGQGTKVEIKSSASTKGPSVFPLAPSSKSTSGGTAALGCLVKDYFPEPVTVSWNSGALTSGVHTFPAVLQSSGLYSLSSVVTVPSSSLGTQTYICNVNHKPSNTKVDKKVEPKSCDKTHTCPPCPAPEAAGGPSVFLFPPKPKDTLMISRTPEVTCVVVDVSHEDPEVKFNWYVDGVEVHNAKTKPREEQYNSTYRVVSVLTVLHQDWLNGKEYKCKVSNKALGAPIEKTISKAKGQPREPQVCTLPPSRDELTKNQVSLSCAVKGFYPSDIAVEWESNGQPENNYKTTPPVLDSDGSFFLVSKLTVDKSRWQQGNVFSCSVMHEALHNHYTQKSLSLSP
light 2: EVQLVESGGGLVQPGGSLRLSCAASGYTFSSYWIEWVRQAPGKGLEWIGEILPGGGDTNYNEIFKGRATFSADTSKNTAYLQMNSLRAEDTAVYYCTRRVPIRLDYWGQGTLVTVSSASVAAPSVFIFPPSDEQLKSGTASVVCLLNNFYPREAKVQWKVDNALQSGNSQESVTEQDSKDSTYSLSSTLTLSKADYEKHKVYACEVTHQGLSSPVTKSFNRGEC
notes: huIgG1 PG-LALA CrossFab; also called P1AE9039; CD79b-CD28

EC50 (read off the curve) [3]: ~1 nM
B6: FAP(4B9)-CD28(SA) 1+1 format (Molecule C) (bispecific antibody, human IgG1, kappa, L234A L235A)
heavy 1: not shown
light 1: not shown
heavy 2: EIVLTQSPGTLSLSPGERATLSCRASQSVTSSYLAWYQQKPGQAPRLLINVGSRRATGIPDRFSGSGSGTDFTLTISRLEPEDFAVYYCQQGIMLPPTFGQGTKVEIKSSASTKGPSVFPLAPSSKSTSGGTAALGCLVKDYFPEPVTVSWNSGALTSGVHTFPAVLQSSGLYSLSSVVTVPSSSLGTQTYICNVNHKPSNTKVDKKVEPKSCDKTHTCPPCPAPEAAGGPSVFLFPPKPKDTLMISRTPEVTCVVVDVSHEDPEVKFNWYVDGVEVHNAKTKPREEQYNSTYRVVSVLTVLHQDWLNGKEYKCKVSNKALGAPIEKTISKAKGQPREPQVCTLPPSRDELTKNQVSLSCAVKGFYPSDIAVEWESNGQPENNYKTTPPVLDSDGSFFLVSKLTVDKSRWQQGNVFSCSVMHEALHNHYTQKSLSLSP
light 2: EVQLLESGGGLVQPGGSLRLSCAASGFTFSSYAMSWVRQAPGKGLEWVSAIIGSGASTYYADSVKGRFTISRDNSKNTLYLQMNSLRAEDTAVYYCAKGWFGGFNYWGQGTLVTVSSASVAAPSVFIFPPSDEQLKSGTASVVCLLNNFYPREAKVQWKVDNALQSGNSQESVTEQDSKDSTYSLSSTLTLSKADYEKHKVYACEVTHQGLSSPVTKSFNRGEC
notes: huIgG1 PG-LALA CrossFab, knob-into-hole; also called P1AD4492; parental

binding result [2]: binds
B7: FAP-CD28CA 1+2 (P1AD8962) (bispecific antibody)
CD28(mAb 9.3) light chain: B8 CD28(mAb 9.3) light chain VLCL RK with R127E, K128Q
heavy chain CD28(mAb 9.3) VHCH - Fc knob - FAP(4B9) VH: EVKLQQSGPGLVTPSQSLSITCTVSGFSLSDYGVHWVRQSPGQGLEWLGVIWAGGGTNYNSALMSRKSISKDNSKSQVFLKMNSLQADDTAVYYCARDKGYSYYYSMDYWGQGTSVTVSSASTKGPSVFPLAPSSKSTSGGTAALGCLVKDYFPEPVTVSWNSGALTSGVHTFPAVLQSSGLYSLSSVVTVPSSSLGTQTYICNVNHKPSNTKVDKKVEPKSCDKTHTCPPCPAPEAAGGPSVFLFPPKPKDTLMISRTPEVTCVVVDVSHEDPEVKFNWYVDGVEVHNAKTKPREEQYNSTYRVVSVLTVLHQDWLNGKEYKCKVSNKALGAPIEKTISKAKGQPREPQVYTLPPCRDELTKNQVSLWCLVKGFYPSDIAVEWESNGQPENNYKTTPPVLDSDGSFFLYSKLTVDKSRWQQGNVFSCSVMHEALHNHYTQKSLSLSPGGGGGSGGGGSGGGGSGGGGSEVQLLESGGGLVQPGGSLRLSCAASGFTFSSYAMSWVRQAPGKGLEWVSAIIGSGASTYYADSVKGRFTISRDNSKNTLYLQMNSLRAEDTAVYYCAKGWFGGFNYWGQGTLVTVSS
heavy chain CD28(mAb 9.3) VHCH - Fc hole - FAP(4B9) VL: EVKLQQSGPGLVTPSQSLSITCTVSGFSLSDYGVHWVRQSPGQGLEWLGVIWAGGGTNYNSALMSRKSISKDNSKSQVFLKMNSLQADDTAVYYCARDKGYSYYYSMDYWGQGTSVTVSSASTKGPSVFPLAPSSKSTSGGTAALGCLVKDYFPEPVTVSWNSGALTSGVHTFPAVLQSSGLYSLSSVVTVPSSSLGTQTYICNVNHKPSNTKVDKKVEPKSCDKTHTCPPCPAPEAAGGPSVFLFPPKPKDTLMISRTPEVTCVVVDVSHEDPEVKFNWYVDGVEVHNAKTKPREEQYNSTYRVVSVLTVLHQDWLNGKEYKCKVSNKALGAPIEKTISKAKGQPREPQVCTLPPSRDELTKNQVSLSCAVKGFYPSDIAVEWESNGQPENNYKTTPPVLDSDGSFFLVSKLTVDKSRWQQGNVFSCSVMHEALHNHYTQKSLSLSPGGGGGSGGGGSGGGGSGGGGSEIVLTQSPGTLSLSPGERATLSCRASQSVTSSYLAWYQQKPGQAPRLLINVGSRRATGIPDRFSGSGSGTDFTLTISRLEPEDFAVYYCQQGIMLPPTFGQGTKVEIK
notes: also called Molecule Q; FAP(4B9)-CD28(mAb9.3) 1+2
